As a reminder, the Km is the concentration of substrate that gives half-maximal velocity.

Substrate in the data set: CC(C)[C@H](NC(=O)c1ccc2ccccc2c1)C(=O)N[C@@H](C)C(=O)N[C@H](CNCc1ccccc1O)CC(=O)O
The note with it: Homo sapiens.

Description: Activity of human recombinant caspase 1

B1: Caspase-1 (Homo sapiens), P29466 (protein)
chain: MADKVLKEKRKLFIRSMGEGTINGLLDELLQTRVLNKEEMEKVKRENATVMDKTRALIDSVIPKGAQACQICITYICEEDSYLAGTLGLSADQTSGNYLNMQDSQGVLSSFPAPQAVQDNPAMPTSSGSEGNVKLCSLEEAQRIWKQKSAEIYPIMDKSSRTRLALIICNEEFDSIPRRTGAEVDITGMTMLLQNLGYSVDVKKNLTASDMTTELEAFAHRPEHKTSDSTFLVFMSHGIREGICGKKHSEQVPDILQLNAIFNMLNTKNCPSLKDKPKVIIIQACRGDSPGVVWFKDSVGVSGNLSLPTTEEFEDDAIKKAHIEKDFIAFCSSTPDNVSWRHPTMGSVFIGRLIEHMQEYACSCDVEEIFRKVRFSFEQPDGRAQMPTTERVTLTRCFYLFPGH
Turning to B1, the Michaelis constant (Km) is 5.8 µM.

These data come from ChEMBL document CHEMBL1157618, “Noncovalent tripeptidyl benzyl- and cyclohexyl-amine inhibitors of the cysteine protease caspase-1” (J Med Chem, 2010).
